B1: VHH0: non-fused anti-HER2 nanobody VHH-S84C-His6, SEQ ID NO: 32 (protein)
VHH: EVQLVESGGGLVQAGGSLRLSCAASGITFSINTMGWYRQAPGKQRELVALISSIGDTYYADSVKGRFTISRDNAKNTVYLQMNCLKPEDTAVYYCKRFRTAAQGTDYWGQGTQVTVSSHHHHHH
modifications: His6 tag
B2: VHH0-MMAF (conjugate)
VHH: B1 VHH
B3: Fused VHH26-MMAF (conjugate)
VHH: EVQLVESGGGLVQAGGSLRLSCAASGITFSINTMGWYRQAPGKQRELVALISSIGDTYYADSVKGRFTISRDNAKNTVYLQMNCLKPEDTAVYYCKRFRTAAQGTDYWGQGTQVTVSSHHHHHHHLPETGGGRRLRKHHHAGYEQF
B4: Fused VHH2-MMAF (conjugate)
VHH: EVQLVESGGGLVQAGGSLRLSCAASGITFSINTMGWYRQAPGKQRELVALISSIGDTYYADSVKGRFTISRDNAKNTVYLQMNCLKPEDTAVYYCKRFRTAAQGTDYWGQGTQVTVSSHHHHHHLPETGGGRRRASVSLLDDELMSL
B5: Fused VHH3-MMAF (conjugate)
VHH: EVQLVESGGGLVQAGGSLRLSCAASGITFSINTMGWYRQAPGKQRELVALISSIGDTYYADSVKGRFTISRDNAKNTVYLQMNCLKPEDTAVYYCKRFRTAAQGTDYWGQGTQVTVSSHHHHHHLPETGGGASVSLLDDEL
B6: Fused VHH15-MMAF (conjugate)
VHH: B5 VHH with A132S, S133Y, V134K, S135Y, L136S, L137K, D138V, D139N, E140K, L141E
B7: Fused VHH16-MMAF (conjugate)
VHH: B5 VHH with A132P, S133A, V134A, S135Y, L136R, L137G, D138V, D139G, E140D, L141D
B8: Fused VHH24-MMAF (conjugate)
VHH: EVQLVESGGGLVQAGGSLRLSCAASGITFSINTMGWYRQAPGKQRELVALISSIGDTYYADSVKGRFTISRDNAKNTVYLQMNCLKPEDTAVYYCKRFRTAAQGTDYWGQGTQVTVSSHHHHHHHLPETGGGRRRRKRKRSHAGYQTI
B9: Fused VHH25-MMAF (conjugate)
VHH: EVQLVESGGGLVQAGGSLRLSCAASGITFSINTMGWYRQAPGKQRELVALISSIGDTYYADSVKGRFTISRDNAKNTVYLQMNCLKPEDTAVYYCKRFRTAAQGTDYWGQGTQVTVSSHHHHHHHLPETGGGKHHHAGYEQF
B10: Fused VHH4-MMAF (conjugate)
VHH: EVQLVESGGGLVQAGGSLRLSCAASGITFSINTMGWYRQAPGKQRELVALISSIGDTYYADSVKGRFTISRDNAKNTVYLQMNCLKPEDTAVYYCKRFRTAAQGTDYWGQGTQVTVSSHHHHHHHLPETGGGASSGLDDLDLLGK
B11: Fused VHH6-MMAF (conjugate)
VHH: B10 VHH with A133N, S134A, S135L, G136S, L137W, D138L, L140E, D141E, G144C, K145L
B12: Fused VHH21-MMAF (conjugate)
VHH: EVQLVESGGGLVQAGGSLRLSCAASGITFSINTMGWYRQAPGKQRELVALISSIGDTYYADSVKGRFTISRDNAKNTVYLQMNCLKPEDTAVYYCKRFRTAAQGTDYWGQGTQVTVSSHHHHHHLPETGGGRRLRKSFHDDSDEDLLHI
B13: Fused VHH22-MMAF (conjugate)
VHH: B12 VHH with L134R
B14: Fused VHH10-MMAF (conjugate)
VHH: EVQLVESGGGLVQAGGSLRLSCAASGITFSINTMGWYRQAPGKQRELVALISSIGDTYYADSVKGRFTISRDNAKNTVYLQMNCLKPEDTAVYYCKRFRTAAQGTDYWGQGTQVTVSSHHHHHHGGGGGSDEDLLHI
B15: Fused VHH11-MMAF (conjugate)
VHH: B14 VHH with G129S
B16: Fused VHH18-MMAF (conjugate)
VHH: EVQLVESGGGLVQAGGSLRLSCAASGITFSINTMGWYRQAPGKQRELVALISSIGDTYYADSVKGRFTISRDNAKNTVYLQMNCLKPEDTAVYYCKRFRTAAQGTDYWGQGTQVTVSSHHHHHHLPETGGGRRLRSDEDLLHI
B17: Fused VHH5-MMAF (conjugate)
VHH: EVQLVESGGGLVQAGGSLRLSCAASGITFSINTMGWYRQAPGKQRELVALISSIGDTYYADSVKGRFTISRDNAKNTVYLQMNCLKPEDTAVYYCKRFRTAAQGTDYWGQGTQVTVSSHHHHHHLPETGGGVQNPSADRNLLDL
B18: Fused VHH19-MMAF (conjugate)
VHH: B17 VHH with V132R, Q133R, N134R, P135R, S136K, A137S, R139E, N140D, D143H, L144I
B19: Fused VHH13-MMAF (conjugate)
VHH: B17 VHH with V132S, Q133F, N134H, P135D, S136D, A137S, R139E, N140D, D143H, L144I
B20: Fused VHH14-MMAF (conjugate)
VHH: B17 VHH with V132E, Q133E, N134S, P135E, S136E, A137R, R139D, N140H, D143P, L144M
B21: Fused VHH1-MMAF (conjugate)
VHH: B17 VHH with V132A, Q133S, N134V, P135S, S136L, A137L, R139D, N140E, L142M, D143S
B22: Fused VHH17-MMAF (conjugate)
VHH: EVQLVESGGGLVQAGGSLRLSCAASGITFSINTMGWYRQAPGKQRELVALISSIGDTYYADSVKGRFTISRDNAKNTVYLQMNCLKPEDTAVYYCKRFRTAAQGTDYWGQGTQVTVSSHHHHHHLPETGGGRRRSDEDLLHI
B23: Fused VHH9-MMAF (conjugate)
VHH: EVQLVESGGGLVQAGGSLRLSCAASGITFSINTMGWYRQAPGKQRELVALISSIGDTYYADSVKGRFTISRDNAKNTVYLQMNCLKPEDTAVYYCKRFRTAAQGTDYWGQGTQVTVSSHHHHHHGGGSDEDLLHI
B24: Fused VHH20-MMAF (conjugate)
VHH: EVQLVESGGGLVQAGGSLRLSCAASGITFSINTMGWYRQAPGKQRELVALISSIGDTYYADSVKGRFTISRDNAKNTVYLQMNCLKPEDTAVYYCKRFRTAAQGTDYWGQGTQVTVSSHHHHHHLPETGGGRRRSFHDDSDEDLLHI
B25: Fused VHH12-MMAF (conjugate)
VHH: EVQLVESGGGLVQAGGSLRLSCAASGITFSINTMGWYRQAPGKQRELVALISSIGDTYYADSVKGRFTISRDNAKNTVYLQMNCLKPEDTAVYYCKRFRTAAQGTDYWGQGTQVTVSSHHHHHHGGGGSGGGGSGGGGSSDEDLLHI
B26: Fused VHH23-MMAF (conjugate)
VHH: EVQLVESGGGLVQAGGSLRLSCAASGITFSINTMGWYRQAPGKQRELVALISSIGDTYYADSVKGRFTISRDNAKNTVYLQMNCLKPEDTAVYYCKRFRTAAQGTDYWGQGTQVTVSSHHHHHHHLPETGGGRKRSHAGYQTI

Where a chain is given by its changes, count along the chain named. Names and notes keep the numbering of the source.

One data set concerns SKBR3 cells. Kind of data set: In-vitro cytotoxicity, CCK8 cell viability. To be noted: SKBR3, 48 h, CCK8. The format is cell-based, human. How it is done: (§1) In this example, human breast cancer cell line SKBR3 with high expression of HER2 and human ovarian cancer cell line SKOV3 with high expression of HER2 were chosen to evaluate the ability of the recombinant-fusion-antibody-drug conjugates to inhibit the growth of cancer cells. The recombinant-fusion-antibody-drug conjugates of different concentrations were added to a 96-well plate seeded with SKBR3 or SKOV3 cells. After treatment for 48 h, the viability of cells was calculated using a CCK8 kit.
Cell viability was measured using different concentrations of MMAF, VHH0-MMAF, or different recombinant-fusion-nanobody-drug conjugates (fused VHH1-MMAF to fused VHH26-MMAF). The half-maximal inhibitory concentration IC50 was calculated (FIGS. 14A-14C, and Table 7). FIGS. 14A, 14B and 14C respectively show the viability of SKBR3 cells treated with the recombinant-fusion-nanobody-drug conjugates, including fused VHH1-MMAF to fused VHH6-MMAF, fused VHH7-MMAF to fused VHH22-MMAF, and fused VHH23-MMAF to fused VHH26-MMAF. […] Data are expressed as the mean (n=3).
SKBR3 and SKOV3 cells were chosen to evaluate the ability of the recombinant-fusion-full-length-antibody-drug conjugates to inhibit the growth of cancer cells. […] The half-maximal inhibitory concentration IC50 was calculated.
For the molecule B1, the “viability of the treated cells” value is on record as “approximately 100%”.

On to B2, for which the maximal killing result is on record as “about 50%”.

Staying with this data set, now noted: SKBR3, 48 h, CCK8, mean n=3; Table 7.
For B3, the IC50 was 95 pM.

In turn, B2 registered an IC50 of 1570 pM.

Regarding B4, the IC50 turned out to be 126 pM. This IC50 is about 12-fold lower than that of the molecule before.

As to B5, it took 109 pM to reach half-maximal inhibition (IC50).

In turn, B6 came in with an IC50 of 51 pM.

B7 returned an IC50 of 27 pM.

The molecule B8 yielded an IC50 of 128 pM.

B9 displayed an IC50 of 466 pM. Compared with the last molecule, the IC50 is about 3.6-fold higher.

In turn, B10 showed an IC50 of 885 pM.

Take B11: the IC50 is 791 pM.

The molecule B12 gave an IC50 of 16 pM.

Regarding B13, the IC50 is 14 pM.

Turning to B14, half-maximal inhibition (IC50) required 232 pM.

Consider B15, for which inhibition was half-maximal at 160 pM (IC50).

Consider B16, for which the IC50 was determined as 394 pM.

The molecule B17 showed an IC50 of 791 pM.

The molecule B18 came in with an IC50 of 564 pM.

Consider B19, for which the IC50 came out at 79.8 pM. Compared with the last molecule, the IC50 is about 7.1-fold lower.

In turn, B20 displayed an IC50 of 69 pM.

Molecule B21 had an IC50 of 1340 pM.

B22 displayed an IC50 of 165 pM. This IC50 is about 8.1-fold lower than that of the molecule before.

On to B23, for which the IC50 was 294 pM.

In turn, B24 came in with an IC50 of 38 pM. Compared with the last molecule, the IC50 is about 7.7-fold lower.

B25 returned an IC50 of 140 pM.

Consider B26, for which inhibition was half-maximal at 98 pM (IC50).

The test system of another data set is MDA-MB-231 cells. The data set can be described thus: In-vitro cytotoxicity, HER2-negative negative control. Type of data set: cell-based, human. Conditions: MDA-MB-231, FIG. 15. The procedure: as §1
In addition, in this example, the HER2-negative MDA-MB-231 cells were chosen as a negative control to compare the ability of fused VHH7-MMAF, fused VHH8-MMAF, VHH0-MMAF, VHH0, and MMAF to inhibit the growth of cancer cells.
As for B1, the “cytotoxicity in HER2-negative cells” value is “none of the substances are cytotoxic”.

As to B2, the “cytotoxicity in HER2-negative cells” value is given as “none of the substances are cytotoxic”.
